Tests used:
[1] = target: HLA-DRB1*04:01 molecules (human (endogenous in homozygous EBV cells)); assay: ELISA
[2] = target: HLA-DRB1*01:01 molecules (human (endogenous in homozygous EBV cells)); assay: ELISA
[3] = target: T1, HLA-DRB1*04:01 (Homo sapiens, UniProt P01903+P01911, A100K/A169T/F76Y/I96L/K127E/L162R/M171V/N62H/P40V/Q125Y/R42H/S133A/S149N/S66Y/V115G/V209L/W38E); assay: Peptide/MHC-binding assay, competitive ELISA against biotinylated HA306-318; settings: for binding to DR4 molecules, in words: competition with HA306-318, stated for DR1 or DR4; for ratio of IC50 of Art v 1-peptides/HA306-318, HLA-DR4: relative binding activity, competitive ELISA, pH 6.0, 24 h at 37°C, two independent experiments
T1 construct: endogenous in cells
Description: (§1) HLA-DRB1*01:01 and -DRB1*04:01 molecules were purified from homozygous EBV cells by affinity chromatography using mAb L243 as described before. Peptide binding to HLA-DR molecules was assessed by competitive ELISA. Dilutions were prepared in 10 mM phosphate, 150 mM NaCl, […], 10 mM citrate (pH = 6.0). […] After 24 hours of incubation at 37°C, peptide/MHC-class II complexes were added to 96 well plates coated with L243 antibody and incubated at RT for 2 hours. Bound biotinylated peptides were detected by Streptavidin-alkaline phosphatase conjugate (GE healthcare, Saclay, France) and 4-methyl-umbelliferyl phosphate (Sigma-Aldrich, St. Quentin Fallavier, France) as substrate. Emitted fluorescence was measured at 450 nm upon excitation at 365 nm by a Gemini fluorometer (Molecular probes, St Grégoire, France). […] Two independent experiments were performed to evaluate competitive binding.

[4] = target: T2, HLA-DRB1*01:01 (Homo sapiens, UniProt P01903+P01911, A100R/D57E/F55L/F60I/F76Y/I96L/L162R/M171V/P40L/Q125E/R42F/V115G/Y59C); assay: as above; settings: for binding to DR1 molecules, in words: competition with HA306-318, stated for DR1 or DR4; for ratio of IC50 of Art v 1-peptides/HA306-318, HLA-DR1: relative binding activity, competitive ELISA, pH 6.0, 24 h at 37°C, two independent experiments
T2 construct: endogenous in cells
Description: as §1

[5] = system: Art v 1_25-36-specific TCL and TCC with HLA-DR1-expressing APC; assay type: cell-based, human
Description: (§2) TCL or TCC (5 × 10^4 cells) were stimulated for 3 days with irradiated (60 Gy) APC and peptides at an optimum concentration of 3 μM, if not indicated otherwise. Proliferation was assessed by ^3H-thymidine uptake within the last 16 hours of incubation.

[6] = system: Art v 1_25-36-specific TCL and TCC with HLA-DR4-expressing APC; assay type: cell-based, human
Description: as §2

[7] = text statement for both HLA molecules

| Molecule | other [1] | other [2] | ratio of IC50 of Art v 1-peptides/HA306-318, HLA-DR4 [3] | ratio of IC50 of Art v 1-peptides/HA306-318, HLA-DR1 [4] | other results |
| --- | --- | --- | --- | --- | --- |
| CDKKCIEWEKAQ [Art v 1_22-33] |  |  | 756 | 2016 | binding to DR4 molecules, in words [3]: weak; binding to DR1 molecules, in words [4]: weak |
| KAIEWEKAGHGA [Ala-26, mono-substituted peptide of Art v 1_25-36] |  |  | 3 | 16 |  |
| KCAEWEKAQHGA [Ala-27, mono-substituted peptide of Art v 1_25-36] |  |  | >926 | 2596 |  |
| KCIAWEKAQHGA [Ala-28, mono-substituted peptide of Art v 1_25-36] |  |  | 11 | 6 |  |
| KCIEWAKAQHGA [Ala-30, mono-substituted peptide of Art v 1_25-36] |  |  | 28 | 6 |  |
| KCIEWEAAQHGA [Ala-31, mono-substituted peptide of Art v 1_25-36] |  |  | 17 | 17 |  |
| KCIEWEKAQAGA [Ala-34, mono-substituted peptide of Art v 1_25-36] |  |  | 17 | 8 |  |
| KCIEWEKAQHAA [Ala-35, mono-substituted peptide of Art v 1_25-36] |  |  | 5 | 5 |  |
| KCIEWEKAQHGA [Art v 1_25-36] |  |  | 15 | 14 | binding less than HA306-318, HLA-DR4 [3, 7]: 15 fold; binding less than HA306-318, HLA-DR1 [4, 7]: 15 fold; median proliferation of TCC, DR1 [5]: 36,640 dpm; median proliferation of TCL, DR1 [5]: 31,630 dpm; TCC that did not respond to presentation by DR4 [6]: 18%; TCC that recognized the peptide presented by DR4 [6]: 82%; median proliferation of TCC, DR4 [6]: 24,125 dpm; median proliferation of TCL, DR4 [6]: 25,985 dpm |
| KCIEWEKGQHGA [Gly-32, mono-substituted peptide of Art v 1_25-36] |  |  | 149 | 63 |  |
| NKKCDKKCIEWE [Art v 1_19–30] |  |  | >926 | >55032 | binding to DR4 molecules, in words [3]: negligible; binding to DR1 molecules, in words [4]: negligible |

The next lines start with results.

| other [1] | other [2] | Molecule | ratio of IC50 of Art v 1-peptides/HA306-318, HLA-DR4 [3] | ratio of IC50 of Art v 1-peptides/HA306-318, HLA-DR1 [4] | other results |
| --- | --- | --- | --- | --- | --- |
| 756 | 2020 | Art v 1_(22-33) (peptide) |  |  |  |
| 15 | 14 | Art v 1_(25-36) (peptide) |  |  |  |
| 3 | 16 | Art v 1_(25-36) Ala-26 (peptide) |  |  |  |
| 17 | 17 | KCIEWEAAQHGA [Art v 1_(25-36) Ala-31] |  |  |  |
| 11 | 6 | KCIAWEKAQHGA [Art v 1_(25-36) Ala-28] |  |  |  |
| 149 | 63 | KCIEWEKGQHGA [Art v 1_(25-36) Gly-32] |  |  |  |
|  | 2600 | KCAEWEKAQHGA [Art v 1_(25-36) Ala-27] |  |  |  |
| 5 | 5 | KCIEWEKAQHAA [Art v 1_(25-36) Ala-35] |  |  |  |
| 17 | 8 | KCIEWEKAQAGA [Art v 1_(25-36) Ala-34] |  |  |  |
| 28 | 6 | KCIEWAKAQHGA [Art v 1_(25-36) Ala-30] |  |  |  |
